The DeepSol protein solubility set

assay: soluble on expression in E. coli; label from the status in PepcDB or PDB records

| Sequence | soluble on expression in E. coli |
| --- | --- |
| GMIDFTKSKQYTLSIRLSTDGFSFSIYNPINDNSQSLFEKEVDTSLSLTANLKNVFHESDFLSYSYKRVNIMIASKRFTMIPLELFEEEQAELLFYHNHQKRENEIVMYNILKKNNVVIIFGIDKSTYTFLNEQYPEARFYSQSTPLIEYFSIKSRLGNSKKMYASVRKDAIDIYCFERGQLLLANSFECMQTEDRIYYLLYVWKQLEFNQERDELHLTGTLSDKETLMNELKKFILQVFIMNPANNIDMQALLTCE | soluble |
| MSLKNITIGMVGVGRIGRMHVANMLAVAETLKERDLNIEIVLADAMPGFAEQVGADMGVKAAASVDKLIEDGVDALFIATSTAGHVDVLRKGIAAKLPMFCEKPIASDVPESLNIIREIDAAGATVQVGHQRRFDLGYQEAKRRLDAGDLGWLHSLKAVSSDAFPPPVSYCATSGGLFRDVSLHDFDIIRWLTGQDIVEVYAKGSNNGDPEIGAVGDIDTGAALLTLADGTLATAIATRYNGAGHDVRLDVMGSKDSTIVGLDEKSAFASAEEGIDFPTGESHPTFAERFADAYKNECIAFVELILGERENPCTPADAVAAAIVADAAQLSLVTGEPVKIPTVREILEGSAQPVEVRALVPSEGHHHHHH | soluble |
| MGSDKIHHHHHHMSEKRQPWVQDLLWRLEALGFDLFIGAVRMMGVDRASDFGGWLGRTFGPMSGAHKVASRNLKLAFPDKDAAWHETILREQWDGLGRSFAEFPLMDKILPSTGRVEVVGKERLVEIAENRIPVVFVSGHLSNWEVMPAAIVDSGVICEMTYRAANNPYVDKRIKESRFRYGVRLFAPKGGDGARELLEGMKQGKSVALMNDQKFNSGVAAPFFGHLAHTAPGPTRLAIRFGTVLQPMSVQRLKGARFRAVVHDPIVPPKTGDRTADIEAGVRMINAFMEDRIRERPAEWFWVHRRWPNEVYAALAERERAAESSS | not soluble |
| MQHSLGLIEVSGMSLAITVADVMAKTAQIRLIGVERTIGSGWMLVKIAGDVAAVRTALSAGEETARAHQGFVACTTIARPAKGTGELVSTTKPPRAEPVQKITVLPAVALTASAAHTTTGPESVQEDPDAEKAVPPIREAVEGSTGNIIQVDAINDPVETAREISKPNASAKSPPAEYGEKQSVATVKAFPVMGDIATDLDIPTASARSVAVAQQVKPGISLHQFHYQEKPDDETADAGSQQTGETKQAVAISAKLLVTCKICGDPSCPRHKGQPRSRCIHNQKSVLR | not soluble |
| MMNDSFCRIIAGEIQARPEQVDAAVRLLDEGNTVPFIARYRKEITGGLDDTQLRNLETRLSYLRELEERRQAILKSISEQGKLTDDLAKAINATLSKTELEDLYLPYKPKRRTRGQIAIEAGLEPLADLLWSDPSHTPEVAAAQYVYADKGVADTKAALDGARYILMERFAEDAALLAKVRDYLWKNAHLVSTVVSGKEEEGAKFRDYFDHHEPLSTVPSHRALAMFRGRNEGVLQLSLNADPQFDEPPKESYCEQIIMDHLGLRLNNAPADSWRKGVVSWTWRIKVLMHLETELMGTVRERAEDEAINVFARNLHDLLMAAPAGLRATMGLDPGLRTGVKVAVVDATGKLVATDTIYPHTGQAAKAAMTVAALCEKHNVELVAIGNGTASRETERFYLDVQKQFPKVTAQKVIVSEAGASVYSASELAAQEFPDLDVSLRGAVSIARRLQDPLAELVKIDPKSIGVGQYQHDVSQTQLARKLDAVVEDCVNAVGVDLNTASVPLLTRVAGLTRMMAQNIVAWRDENGQFQNRQQLLKVSRLGPKAFEQCAGFLRINHGDNPLDASTVHPEAYPVVERILAATQQALKDLMGNSSELRNLKASDFTDEKFGVPTVTDIIKELEKPGRDPRPEFKTAQFADGVETMNDLQPGMILEGAVTNVTNFGAFVDIGVHQDGLVHISSLSNKFVEDPHTVVKAGDIVKVKVLEVDLQRKRIALTMRLDEQPGETNARRGGGNERPQNNRPAAKPRGREAQPAGNSAMMDALAAAMGKKR | soluble |
| MHHHHHHSSGVDLGTENLYFQSMEEHDSPTEASQPIVEEEETKTFKDLGVTDVLCEACDQLGWTKPTKIQIEAIPLALQGRDIIGLAETGSGKTGAFALPILNALLETPQRLFALVLTPTRELAFQISEQFEALGSSIGVQSAVIVGGIDSMSQSLALAKKPHIIIATPGRLIDHLENTKGFNLRALKYLVMDEADRILNMDFETEVDKILKVIPRDRKTFLFSATMTKKVQKLQRAALKNPVKCAVSS | soluble |
| MTTHQDGNADGASATARTVSLDVVVVGAGTSGCYAAATVADAGYDVVIVERKDETEAGHIACGDALKGASDFPDAIPKSQLEPAFTNTDVDHGRFEIPQEDTVLEIPVPGELAVIDRWEYGRCLIEGANDSGVEFHYDTVVQDVLQDDSGRVTGVKAMRKGDPVTYEGDMVIDGAGALSILQDKTDLEAATFDTNVQYSQFCSAYREIIEVDEPVEWDDALVFKPTERSAGYLWYFPRTDTEINAGLGFQMNEEPMELVDDLKRDLQGRSEFEGAEVQDKLGAALPTRRPYDSAVAPGFMAVGDAAGHVNPTTGGGIAGAAYAGTYAAEQAIEAIEAGRTDDEAALWEYNERVMDHFGARYAALDVYNIFTTAYDVDDLMALLAALPGEKLAEALYGGSTSIGLGLKLKMAVKSIGHLGTIRDLYQTKKAADRLLEHYESYPSDRSGFEAWQRERDSIMDDIYEVTGAEPKYLEHHHHHH | soluble |
| MGSDKIHHHHHHMQIDKQQVGNRIHQLRIAAGLSMAKLASAIGLAGKSTINDWEKGRTLANADRLAKVAAYFDVSTNYLLYGSLTEYVTAVFQNGGLNHSEFNVLLWEYVDLTTTNPNILSSDLFSSASQTEQGVSDPTKIAAALITPTINNAIRQIVPEIVQHYQQTTTYPEPQAVIQAGCYVFRHRIQIIRRTFTGKYNRIVRLLDNVDLYEKLQPDDDLKAYLNQTTGPKTQVQNGYSLDEKYQRQMNKVITEFHQALNRINDAYQAELMACGQGQAHSAAD | not soluble |
| MAEPARARPKITPETQHYWDGAKQGELRLQRCDSCAHAYFPPRPFCPKCGSREVSVFKASGKGTLYSYVINHRPLAAGFTEPYAIAVVELEEGPRMMSNILECPQTPEALELDMKLEVTFQKIDDNLTLPQFRPAKG | not soluble |
| MKEVIAQNAKLSADDLKEILPKANKLEDFAFEKNEDSTISEVFQAKNGSENEGYIIKVSPKGFNGPIDMVVAIDKNREISGVKVLSQAETPGLGAKVEESSFSEKFKGLTIEDNIKIVKTSPSSQGEIQGITGATISSNAVSSGINDAISFYKENVLGEDLSKEKILNLSKINLEGDLKELTIELEEGIDKVSIVSNGEKEIGYAIEASEVGMYEEKPIKFALGISTGGIITGVQIIDHKETAGLGDLIEDENFLNSFIGVSSLDKLSVKENTNEIDLSVYGEVVNVDSISGATKSSMAIIKGITNVINFYNNNLSLEHHHHHH | soluble |
| LPHLMKYMGSKRELLDFIISSINDLDIESNWFCDLFSGTSVVGCSLKDEYNVQINDIQIYTSIFANTYLPNINKLINSTELEKIKDRVLFYVDEFYRKYPDLIFDYNSIDNYEKLTKLEIQQQNLIYSNFEIGFHLFVKYYSGTYWSYTQCVWIDSIRAVAEEYKGKSDYYIILSSLIYAMSYTSQSTGHFAQFRDVTESNMHDIMLYRIRDIWTYFEKKFLEILNMVDVEATNRYTITTLDYLDCLRLIERNTIVYADPPYSSVHYSRFYHAIETLIRYDYPNVKYKGRYREDRHQSPFGKKTEVKNAFGKLFKGVKNKNSHLILSYSDNGMITQDEIMEIGNSIMGNQYKGDIQVKEYIHSKMGRSDIHSMGVNELIISYKRQ | not soluble |
| SLTRPNTDYSCGGFLSQPSGDFSSPFYPGNYPNNAKCVWDIEVQNNYRVTVIFRDVQMEGGCNYDYIEVFDGPYRSSPLIARVCDGARGSFTSSSNFMSIRFISDHSITRRGFRAEYYSSPSN | soluble |
| MPRPSTCADSGGGMMTTLTARPEAITFDPQQSALIVVDMQNAYATPGGYLDLAGFDVSTTRPVIANIQTAVTAARAAGMLIIWFQNGWDEQYVEAGGPGSPNFHKSNALKTMRKQPQLQGKLLAKGSWDYQLVDELVPQPGDIVLPKPRYSGFFNTPLDSILRSRGIRHLVFTGIATNVCVESTLRDGFFLEYFGVVLEDATHQAGPKFAQKAALFNIETFFGWVSDVETFCDALSPTSFAHIA | not soluble |
| MTKDRQIKKTKTAIYSAFIALLQKKEYSKITVRDMITLANVGRSTFYAHYESKEMLLKELCEELFHHLFRQKRNVTFEDYLVHILKHFEQNKDSIATLLLSNDPYFLLRFKNELEHDVYPNLRCKYIDKTTIPEVFLKQFVLSSFIETLKWWLHQRQRMSANELLKYYLELIK | soluble |
